Measured values reported in patent US20050186203A1.

Legend:
Settings in all cases: remark: other sources report otherwise
[1] = molecular target: T1, purified full-length human IGF-I receptor (affinity purified; directly coated or biotinylated and captured on streptavidin) (human), P08069; assay: ELISA, hybridoma supernatant on plate-coated purified human IGF-I receptor, anti-mouse IgG Fc-HRP
[2] = molecular target: T2, human IGF-I receptor of human tumor cells (MCF-7, NCI-H838, SaOS-2 and other lines) (human), P08069; assay: displacement of pre-bound biotinylated IGF-I from MCF-7 cells by EM164 (10-100 µg/mL) at 4° C., 2 h; capture ELISA
[3] = molecular target: T1, purified full-length human IGF-I …; assay: ELISA titration on biotinylated human IGF-I receptor captured on streptavidin; non-linear regression for one-site binding
[4] = molecular target: T2, human IGF-I receptor of human tumor …; assay: displacement of pre-bound biotinylated IGF-I from MCF-7 cells by EM164 (10-100 µg/mL) at 37° C., 30 min; capture ELISA
[5] = molecular target: T1, purified full-length human IGF-I …; assay: ELISA titration on human IGF-I receptor, similar to that of the whole antibody

Row | absorbance units (ELISA, 405 nm) (absorbance units) [1] | % displacement of pre-bound biotinylated IGF-I [2] [%] | Kd [3] [nM] | % displacement of pre-bound biotinylated IGF-I [4] [%] | Kd [5] [nM] | Binder
1 | 1.2 | 50 | 0.1 | 90 |  | murine anti-IGF-I receptor antibody EM164 (antibody, V domains shown) VH: QVQLQQSGAELVKPGASVKLSCKASGYTFTSYWMHWVKQRPGQGLEWIGEINPSNGRTNYNEKFKRKATLTVDKSSSTAYMQLSSLTSEDSAVYYFARGRPDYYGSSKWYFDVWGAGTTVTVS VL: DVLMTQTPLSLPVSLGDQASISCRSSQSIVHSNVNTYLEWYLQKPGQSPKLLIYKVSNRFSGVPDRFSGSGSGTDFTLRISRVEAEDLGIYYCFQGSHVPPTFGGGTKLEIKR
2 |  |  |  |  | 0.3 | Fab fragment of EM164 antibody (Fab, V domains shown, here or on the partner: biotinylated with PEO-maleimide-biotin reagent in the captured format) VH: QVQLQQSGAELVKPGASVKLSCKASGYTFTSYWMHWVKQRPGQGLEWIGEINPSNGRTNYNEKFKRKATLTVDKSSSTAYMQLSSLTSEDSAVYYFARGRPDYYGSSKWYFDVWGAGTTVTVS VL: DVLMTQTPLSLPVSLGDQASISCRSSQSIVHSNVNTYLEWYLQKPGQSPKLLIYKVSNRFSGVPDRFSGSGSGTDFTLRISRVEAEDLGIYYCFQGSHVPPTFGGGTKLEIKR
